Several values for one entry are separate records, joined by “and”; a condition that tells them apart may be missing. Equal entries are not always repeated. Where two headings read alike, the source gives them in different places.

These results are taken from PMC3272482.

Assay in all cases: cryo-EM structure
The target of experiment [1] is Escherichia coli DegQ, protease deficient S187A mutant (Escherichia coli) (UniProt P39099).
For experiment [2] the target is unchanged. The source holds these as a separate data set.
For experiment [3] the target is unchanged. The source holds these as a separate data set.

Take “Escherichia coli DegQ, protease deficient S187A mutant (from UniProt P39099 28-455) (enzyme)”: the stoichiometry N in experiment [1] was 24 protomers and 12 protomers; in experiment [2] it was 12 protomers; in experiment [3], 12 protomers.
